pKd: −log10 of the molar value.

The assay has as its target purified NTRI ectodomain (FLAG-NTRI, Fc removed) (human) (UniProt Q9P121). In words: AUC.

Take “purified NTRI ectodomain (FLAG-NTRI, Fc removed) (from UniProt Q9P121 34-321) (domain or fragment)”: the pKd (usually the negative decadic logarithm of the Kd, by convention in mol/L) was 6.96; the percent dimer at 2.0 uM stood at 50%; the percent dimer at 10 uM is 87%; the stoichiometry N (as a rule, the number of molecules, sites or subunits per partner or assembly) is 2.
